Assays:
[1] = Hydrolysis of 15% N-acetyl-DL-tryptophan by E. coli cells; assay type: cell-based, E. coli HB101; conditions: 25° C., 24 hours
Description: 3AD-0013(M347Q/R374H) and 3AD-0089(A154V/M347A/R374P) are mutants with two amino acid substitutions and with three amino acid substitutions of the third generation mutants obtained in Example 17, respectively. Cells of E. coli HB101 strain transformed with plasmids expressing the two types of mutants were each inoculated to a liquid LB medium, and cultured at 30° C. overnight. Then, the E. coli cells were inoculated to a culture medium (2x YT) and incubated at 30° C. for 18 hours. The cells of E. coli were harvested, and used to hydrolyze N-acetyl-D-tryptophan.
10 ml of a reaction solution containing E. coli cells prepared from 5 mL of culture medium solution, 300 mM Tris-hydrochloride buffer (pH 8.0), and 15% N-acetyl-DL-tryptophan was incubated at 25° C. for 24 hours while being stirred. E. coli HB101 strain containing the wild-type pSL-ADD6 was used as a control. While the yield was about 15% with the wild type, the yields were about 30% and about 80% with the mutant 3AD-0013 having two amino acid substitutions and the mutant 3AD-0089 having three amino acid substitutions, respectively. Thus, the third generation mutants obtained in […] were confirmed to have higher processability in the hydrolysis of higher concentrations of N-acetyl-DL-tryptophan.

[2] = Production of D-tryptophan from N-acetyl-DL-tryptophan using cell-free extract (10 U/mL); assay type: biochemical; conditions: for Yield of D-Trp: 10 U/mL reaction solution, 30° C., 24 hours
Description: Wild-type or mutant D-aminoacylase extract can be obtained by, for example, recovering microbial cells by filtration and centrifugation, suspending them in a buffer, and disrupting them using a Bead-Beater (BIOSPEC PRODUCT). Reaction solutions containing 10 U/mL enzyme thus obtained 300 mM Tris-hydrochloride buffer (pH 8.0), and 12%, 15%, 17%, 20% or 22% N-acetyl-DL-tryptophan, are incubated at 30° C. for 24 hours while being shaken. Thus, D-tryptophan can be produced in 80% or higher yield from 12%, 15%, or 17% substrate, or in 50% or higher yield from 20% or 22% substrate.
0.5 ml of a reaction solution containing 5 units of cell-free extract obtained in the step of enzyme purification described in Example 19 or Example 23, 12%, 15%, 17%, 20%, or 22% N-acetyl-DL-tryptophan, and 300 mM Tris-hydrochloride buffer (pH 8.0) was incubated at 30° C. for 24 hours while being stirred. While with the wild type the yield of D-tryptophan was lower than 10% at any substrate concentration, with the mutant 3AD-0089 the yield of D-tryptophan was 80% or higher at substrate concentrations of up to 17%. Furthermore, the mutant was confirmed to enable the production of D-tryptophan in 66% yield in the presence of 20% substrate, or in 58% yield in the presence of 22% substrate.

[3] = according to references; cited from earlier work
[4] = Conversion of 5% or 10% N-acetyl-DL-tryptophan by E. coli transformant cells; assay type: cell-based, E. coli HB101; conditions: 25° C.
Description: Cells of E. coli HB101 strain were transformed with the expression plasmids for the three mutant D-aminoacylases AD-0103, AD-1064, and AD-1927 obtained in Example 8, whose inhibition was impaired. The E. coli cells were inoculated in liquid LB media, and cultured at 30° C. overnight. Then, the transformants were inoculated in 2x YT (2% Bacto tryptone, 1% Bacto-yeast extract, 1.0% sodium chloride, pH 7.2) media and incubated at 30° C. for 18 hours. The E. coli cells were harvested. The bacterial cells were used to hydrolyze N-acetyl-D-tryptophan.
Cells of the respective E. coli transformants prepared from 5 ml of liquid culture media were incubated in 10 ml of reaction solutions which comprised 300 mM Tris-hydrochloride buffer (pH 8.0) containing 5% or 10% N-acetyl-DL-tryptophan at 25° C. while being stirred. An E. coli HB101 strain containing the plasmid pSL-ADD6 with the wild-type D-aminoacylase was used as a control. In assays using 5% N-acetyl-DL-tryptophan as the substrate, the yield was about 50% with the wild type, whereas the yield was about 100% with any one of the four mutants. In assays using 10% N-acetyl-DL-tryptophan as the substrate, the yield was about 15% with the wild type, whereas the yield was about 25% with each of the mutants AD-0103 and AD-1089; the yield was about 40% with the mutant AD-1064, and the yield was about 60% with the mutant AD-1927. […]

[5] = Production of D-tryptophan from high concentrations of N-acetyl-DL-tryptophan using culture medium of recombinant E. coli; assay type: cell-based, E. coli HB101
Description: Cells of E. coli HB101 strain were transformed with the plasmid pSL-AD10 expressing the mutant D-aminoacylase 3AD-0089 (containing the amino acid substitution of A154V/M347A/R374F) obtained in Example 18. The transformant was inoculated to a liquid LB medium, and cultured at 30° C. overnight. Then, the E. coli was inoculated to a culture medium (2x YT) and incubated at 30° C. for 18 hours. N-acetyl-D-tryptophan was hydrolyzed using the culture medium solution of the E. coli.
400 mL of a reaction solution containing the culture medium solution of the E. coli and 15% N-acetyl-DL-tryptophan was incubated at 30° C. for 24 hours while being stirred. E. coli HB101 strain containing the wild type […] was used as a control. While with the wild type the yield was about 4%, with the recombinant E. coli containing pSL-AD10 the yield was 90% or higher (FIG. 1).
The hydrolysis was carried out in the presence of 20% N-acetyl-DL-tryptophan by the same method as described in Example 26. The yield was 90% or higher with the recombinant E. coli having the plasmid pSL-AD10 that contains the DNA encoding the mutant D-aminoacylase 3AD-0089 (containing the amino acid substitution of A154V/M347A/R374F). The optical purity of tryptophan produced was analyzed by the procedure described below. […] The elution was detected with the optical density at 280 nm. […]

B1: wild-type: D-aminoacylase derived from Alcaligenes denitrificans subsp. xylosoxydans MI-4, SEQ ID NO: 1 (protein)
chain: MSQSDSQPFDLLLAGGTLIDGSNTPGRRADLGVRGDRIAAIGDLSDAAAHTRVDVSGLVVAPGFIDSHTHDDNYLLRRRDMTPKISQGVTTVVTGNCGISLAPLAHANPPAPLDLLDEGGSYRFERFADYLDALRATPAAVNAACMVGHSTLRAAVMPDLQRAATDEEIAAMRDLAEEAMASGAIGISTGAFYPPAARATTEEIIEVCRPLSAHGGIYATHMRDEGEHIVAALEETFRIGRELDVPVVISHHKVMGQPNFGRSRETLPLIEAAMARQDVSLDAYPYVAGSTMLKQDRVLLAGRTIITWCKPFPELSGRDLDEVAAERGKSKYDVVPELQPAGAIYFMMDEPDVQRILAFGPTMIGSDGLPHDERPHPRLWGTFPRVLGHYARDLGLFPLETAVWKMTGLTAARFGLAGRGQLQAGYFADLVVFDPATVADTATFEHPTERAAGIHSVYVNGAPVWQEQAFTGQHAGRVLARTAA
modifications: Alcaligenes denitrificans subsp. xylosoxydans MI-4
- yield [1]: about 15%
- Yield of D-Trp ([2]; 12% N-Ac-DL-Trp): 9.4%
- Yield of D-Trp ([2]; 15% N-Ac-DL-Trp): 3.5%
- Yield of D-Trp ([2]; 17% N-Ac-DL-Trp): 1.8%
- Yield of D-Trp ([2]; 20% N-Ac-DL-Trp): 0.5%
- Yield of D-Trp ([2]; 22% N-Ac-DL-Trp): 0.5%
- yield of D-tryptophan ([2]; at any substrate concentration (12% to 22%)): lower than 10%
- activity to N-acetyl-D-tryptophan [3]: ≤ 20 U/mg
- yield ([4]; 5% N-acetyl-DL-tryptophan): about 50%
- yield ([4]; 10% N-acetyl-DL-tryptophan): about 15%
- yield ([5]; 15% N-acetyl-DL-tryptophan, 30° C., 24 hours, culture medium solution): about 4%
- D-tryptophan produced ([5]; from 150 g/l N-acetyl-DL-tryptophan (75 g/l N-acetyl-D-tryptophan), FIG. 1): about 2.5 g/l

From patent US7282356B2, “D-aminoacylase mutants” (Daicel Chemical Industries, Ltd., priority 2002, dated 2007)
